Results taken from PMC10560287.

Biological target: GmILPA1-cYFP (soybean (Glycine max))
Assay: split reporter (BiFC, NanoBiT); BiFC with nYFP and cYFP fusions co-infiltrated into N. benthamiana leaves together with P19; confocal microscopy; leaves in white light or exposed to 1 h of UV-B (21 μmol m^-2 s^-1)

Sequence of GmILPA1-cYFP (soybean (Glycine max)) (main, as listed by the source): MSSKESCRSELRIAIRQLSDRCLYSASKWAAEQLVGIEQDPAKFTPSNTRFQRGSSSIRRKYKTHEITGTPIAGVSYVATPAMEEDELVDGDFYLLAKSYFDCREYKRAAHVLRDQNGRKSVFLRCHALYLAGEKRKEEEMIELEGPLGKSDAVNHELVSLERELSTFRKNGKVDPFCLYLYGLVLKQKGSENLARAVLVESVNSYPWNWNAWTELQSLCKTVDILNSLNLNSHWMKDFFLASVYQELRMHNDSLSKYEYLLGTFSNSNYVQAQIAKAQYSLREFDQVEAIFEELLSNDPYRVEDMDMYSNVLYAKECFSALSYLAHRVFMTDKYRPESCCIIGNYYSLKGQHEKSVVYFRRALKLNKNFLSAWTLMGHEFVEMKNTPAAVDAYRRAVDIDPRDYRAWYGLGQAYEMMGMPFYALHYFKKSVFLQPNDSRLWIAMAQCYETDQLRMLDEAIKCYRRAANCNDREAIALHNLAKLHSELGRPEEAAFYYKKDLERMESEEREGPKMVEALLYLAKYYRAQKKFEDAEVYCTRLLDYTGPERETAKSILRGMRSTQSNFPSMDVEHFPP

Question: With GmGA2ox-like-nYFP (enzyme) as the substance, how does the fold change of the relative BiFC fluorescence intensity in the cytoplasm, UV-B against white light read?
Answer: The fold change of the relative BiFC fluorescence intensity in the cytoplasm, UV-B against white light was 3 fold.
